Measured values reported in patent US20260063625A1, “COMPOSITIONS FOR AND METHODS OF DETECTING FOOD TOXINS” (priority 2022, published 2026).

Test: Fluorescence polarization (FP) binding to fluorescein labeled STX
Conditions: […]G = RT ln (KdSxph mutant/KdSxph); T = 298K
Method: […]; Measurements were performed at 25° C. on a Synergy H1 microplate reader (BioTek) using the polarization filter setting (excitation 485 nm, emission 528 nm). […]. The dissociation constants were calculated using GraphPad Prism by fitting fluorescence millipolarization (mP=P·10^−3, where P is polarization) as a function of Sxph concentration using the equation: P={(Pbound−Pfree) [Sxph]/(Kd+[Sxph])}+Pfree, where P is the polarization measured at a given Sxph concentration, Pfree is the […], and Pbound is the maximum polarization of Sxph bound by F-STX (Rossi and Taylor, Hansen et al.).

Row | Molecule | […]G (kcal mol^−1) relative to wild-type RcSxph
1 | I782A/Y558A: RcSxph double mutant I782A/Y558A (protein) MAPTFQTALFFTIISLSFAAPNAKQVRWCAISDLEQKKCNDLVGSCNVPDITLVCVLRSSTEDCMTAIKDGQADAMFLDSGEVYEASKDPYNLKPIIAEPYSSNRDLQKCLKERQQALAKKMIGHYIPQCDEKGNYQPQQCHGSTGHCWCVNAMGEKISGTNTPPGQTRATCERHELPKCLKERQVALGGDEKVLGRFVPQCDEKGNYEPQQFHGSTGYSWCVNAIGEEIAGTKTPPGKIPATCQKHDLVTTCHYAVAMVKKSSAFQFNQLKGKRSCHSGVSKTDGWKALVTVLVEKKLLSWDGPAKESIQRAMSKFFSVSCIPGATQTNLCKQCKGEEGKNCKNSHDEPYYGNYGAFRCLKEDMGDVAFLRSTALSDEHSEVYELLCPDNTRKPLNKYKECNLGTVPAGTVVTRKISDKTEDINNFLMEAQKRQCKLFSSAHGKDLMFDDSTLQLALLSSEVDAFLYLGVKLFHAMKALTGDAHLPSKNKVRWCTINKLEKMKCDDWSAVSGGAIACTEASCPKGCVKQILKGEADAVKLEVQYMYEALMCGLLPAVEEYHNKDDFGPCKTPGSPATDFGTLRAVALVKKSNKDINWNNIKGKKSCHTGVGDIAGWVIPVSLIRRQNDNSDIDSFFGESCAPGSDTKSNLCKLCIGDPKNSAANTKCSLSDKEAYYGNQGAFRCLVEKGDVAFVPHTVVFENTDGKNPAVWAKNLKSEDFELLCLDGSRAPVSNYKSCKLSGIPPPAIVTREESISDVVRIVANQQSLYGRKGFEKDMFQLFSSNKGNNLLFNDNTQCLATFDRQPKDIMEDYFGKPYYTTVYGASRSAMSSELISACTIKHC | -1.07 kcal/mol
2 | Y795A: RcSxph mutant Y795A (protein) MAPTFQTALFFTIISLSFAAPNAKQVRWCAISDLEQKKCNDLVGSCNVPDITLVCVLRSSTEDCMTAIKDGQADAMFLDSGEVYEASKDPYNLKPIIAEPYSSNRDLQKCLKERQQALAKKMIGHYIPQCDEKGNYQPQQCHGSTGHCWCVNAMGEKISGTNTPPGQTRATCERHELPKCLKERQVALGGDEKVLGRFVPQCDEKGNYEPQQFHGSTGYSWCVNAIGEEIAGTKTPPGKIPATCQKHDLVTTCHYAVAMVKKSSAFQFNQLKGKRSCHSGVSKTDGWKALVTVLVEKKLLSWDGPAKESIQRAMSKFFSVSCIPGATQTNLCKQCKGEEGKNCKNSHDEPYYGNYGAFRCLKEDMGDVAFLRSTALSDEHSEVYELLCPDNTRKPLNKYKECNLGTVPAGTVVTRKISDKTEDINNFLMEAQKRQCKLFSSAHGKDLMFDDSTLQLALLSSEVDAFLYLGVKLFHAMKALTGDAHLPSKNKVRWCTINKLEKMKCDDWSAVSGGAIACTEASCPKGCVKQILKGEADAVKLEVQYMYEALMCGLLPAVEEYHNKDDFGPCKTPGSPYTDFGTLRAVALVKKSNKDINWNNIKGKKSCHTGVGDIAGWVIPVSLIRRQNDNSDIDSFFGESCAPGSDTKSNLCKLCIGDPKNSAANTKCSLSDKEAYYGNQGAFRCLVEKGDVAFVPHTVVFENTDGKNPAVWAKNLKSEDFELLCLDGSRAPVSNYKSCKLSGIPPPAIVTREESISDVVRIVANQQSLYGRKGFEKDMFQLFSSNKGNNLLFNDNTQCLITFDRQPKDIMEDAFGKPYYTTVYGASRSAMSSELISACTIKHC | 0.08 kcal/mol
3 | K789A: RcSxph mutant K789A (protein) MAPTFQTALFFTIISLSFAAPNAKQVRWCAISDLEQKKCNDLVGSCNVPDITLVCVLRSSTEDCMTAIKDGQADAMFLDSGEVYEASKDPYNLKPIIAEPYSSNRDLQKCLKERQQALAKKMIGHYIPQCDEKGNYQPQQCHGSTGHCWCVNAMGEKISGTNTPPGQTRATCERHELPKCLKERQVALGGDEKVLGRFVPQCDEKGNYEPQQFHGSTGYSWCVNAIGEEIAGTKTPPGKIPATCQKHDLVTTCHYAVAMVKKSSAFQFNQLKGKRSCHSGVSKTDGWKALVTVLVEKKLLSWDGPAKESIQRAMSKFFSVSCIPGATQTNLCKQCKGEEGKNCKNSHDEPYYGNYGAFRCLKEDMGDVAFLRSTALSDEHSEVYELLCPDNTRKPLNKYKECNLGTVPAGTVVTRKISDKTEDINNFLMEAQKRQCKLFSSAHGKDLMFDDSTLQLALLSSEVDAFLYLGVKLFHAMKALTGDAHLPSKNKVRWCTINKLEKMKCDDWSAVSGGAIACTEASCPKGCVKQILKGEADAVKLEVQYMYEALMCGLLPAVEEYHNKDDFGPCKTPGSPYTDFGTLRAVALVKKSNKDINWNNIKGKKSCHTGVGDIAGWVIPVSLIRRQNDNSDIDSFFGESCAPGSDTKSNLCKLCIGDPKNSAANTKCSLSDKEAYYGNQGAFRCLVEKGDVAFVPHTVVFENTDGKNPAVWAKNLKSEDFELLCLDGSRAPVSNYKSCKLSGIPPPAIVTREESISDVVRIVANQQSLYGRKGFEKDMFQLFSSNKGNNLLFNDNTQCLITFDRQPADIMEDYFGKPYYTTVYGASRSAMSSELISACTIKHC | -0.22 kcal/mol
4 | T563A: RcSxph mutant T563A (protein) MAPTFQTALFFTIISLSFAAPNAKQVRWCAISDLEQKKCNDLVGSCNVPDITLVCVLRSSTEDCMTAIKDGQADAMFLDSGEVYEASKDPYNLKPIIAEPYSSNRDLQKCLKERQQALAKKMIGHYIPQCDEKGNYQPQQCHGSTGHCWCVNAMGEKISGTNTPPGQTRATCERHELPKCLKERQVALGGDEKVLGRFVPQCDEKGNYEPQQFHGSTGYSWCVNAIGEEIAGTKTPPGKIPATCQKHDLVTTCHYAVAMVKKSSAFQFNQLKGKRSCHSGVSKTDGWKALVTVLVEKKLLSWDGPAKESIQRAMSKFFSVSCIPGATQTNLCKQCKGEEGKNCKNSHDEPYYGNYGAFRCLKEDMGDVAFLRSTALSDEHSEVYELLCPDNTRKPLNKYKECNLGTVPAGTVVTRKISDKTEDINNFLMEAQKRQCKLFSSAHGKDLMFDDSTLQLALLSSEVDAFLYLGVKLFHAMKALTGDAHLPSKNKVRWCTINKLEKMKCDDWSAVSGGAIACTEASCPKGCVKQILKGEADAVKLEVQYMYEALMCGLLPAVEEYHNKDDFGPCKTPGSPYTDFGALRAVALVKKSNKDINWNNIKGKKSCHTGVGDIAGWVIPVSLIRRQNDNSDIDSFFGESCAPGSDTKSNLCKLCIGDPKNSAANTKCSLSDKEAYYGNQGAFRCLVEKGDVAFVPHTVVFENTDGKNPAVWAKNLKSEDFELLCLDGSRAPVSNYKSCKLSGIPPPAIVTREESISDVVRIVANQQSLYGRKGFEKDMFQLFSSNKGNNLLFNDNTQCLITFDRQPKDIMEDYFGKPYYTTVYGASRSAMSSELISACTIKHC | -0.20 kcal/mol
5 | Q787A: RcSxph mutant Q787A (protein) MAPTFQTALFFTIISLSFAAPNAKQVRWCAISDLEQKKCNDLVGSCNVPDITLVCVLRSSTEDCMTAIKDGQADAMFLDSGEVYEASKDPYNLKPIIAEPYSSNRDLQKCLKERQQALAKKMIGHYIPQCDEKGNYQPQQCHGSTGHCWCVNAMGEKISGTNTPPGQTRATCERHELPKCLKERQVALGGDEKVLGRFVPQCDEKGNYEPQQFHGSTGYSWCVNAIGEEIAGTKTPPGKIPATCQKHDLVTTCHYAVAMVKKSSAFQFNQLKGKRSCHSGVSKTDGWKALVTVLVEKKLLSWDGPAKESIQRAMSKFFSVSCIPGATQTNLCKQCKGEEGKNCKNSHDEPYYGNYGAFRCLKEDMGDVAFLRSTALSDEHSEVYELLCPDNTRKPLNKYKECNLGTVPAGTVVTRKISDKTEDINNFLMEAQKRQCKLFSSAHGKDLMFDDSTLQLALLSSEVDAFLYLGVKLFHAMKALTGDAHLPSKNKVRWCTINKLEKMKCDDWSAVSGGAIACTEASCPKGCVKQILKGEADAVKLEVQYMYEALMCGLLPAVEEYHNKDDFGPCKTPGSPYTDFGTLRAVALVKKSNKDINWNNIKGKKSCHTGVGDIAGWVIPVSLIRRQNDNSDIDSFFGESCAPGSDTKSNLCKLCIGDPKNSAANTKCSLSDKEAYYGNQGAFRCLVEKGDVAFVPHTVVFENTDGKNPAVWAKNLKSEDFELLCLDGSRAPVSNYKSCKLSGIPPPAIVTREESISDVVRIVANQQSLYGRKGFEKDMFQLFSSNKGNNLLFNDNTQCLITFDRAPKDIMEDYFGKPYYTTVYGASRSAMSSELISACTIKHC | 0.25 kcal/mol
